Paper PMC10247153, “Chromatin Sensing by the Auxiliary Domains of KDM5C Regulates Its Demethylase Activity and Is Disrupted by X-linked Intellectual Disability Mutations” (Journal of molecular biology, 2022)
Where a chain is given by its changes, count along the chain named. Blank lines part the entries; values can stand above or below the binder they belong to. No end group written: not given here. Me3 = trimethyl; Me2 = dimethyl

Experiments:
Settings in all cases: both partners purified
[1] = biological target: T1, PHD1 (KDM5C residues 318–378) (human, UniProt P41229-1 318-378); experiment: NMR titration; 2D 1H-15N HSQC of 200 μM 15N-PHD1 with increasing peptide up to 1:5 PHD1:peptide; 50 mM HEPES pH 7.5, 50 mM KCl, 5 mM BME, 50 μM ZnCl2, 5% D2O, 298 K; Kd from chemical shift change of one residue (I361 or D343), quadratic binding equation
T1 construct: KDM5C, human, PHD1 domain, residues 318-378; 15N-labelled (or 15N,13C) for NMR; also called PHD1 domain of KDM5C; source: E. coli BL21(DE3), M9 minimal medium, purified (Ni-NTA, MonoQ flow-through); not shown: 6xHis, N-terminal, cleaved; SUMO (Smt3), N-terminal, cleaved
T1 sequence (looked up): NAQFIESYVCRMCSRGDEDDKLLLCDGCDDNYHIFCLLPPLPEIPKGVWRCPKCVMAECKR

PHD1 D343A mutant = biological target: T2, PHD1 D343A mutant (human, UniProt P41229-1 318-378, D343A); experiment: as above
T2 construct: KDM5C, human, PHD1 domain, residues 318-378 (limits as told for wild-type PHD1)
T2 sequence (looked up): T1 sequence (looked up) with D26A

Avitag-PHD1 = biological target: T3, Avitag-PHD1 (human, UniProt P41229-1 318-378, biotin on the Avitag (BirA co-expression)); experiment: BLI; biotinylated Avitag-PHD1 (100 nM) loaded on streptavidin biosensors; 100 μM peptide; 50 mM HEPES pH 8, 50 mM KCl, 50 μM ZnCl2, 5 mM BME, 0.05% Tween-20; 25 °C; two phase exponential fit
T3 construct: KDM5C, human, PHD1 domain, residues 318-378; 6xHis-SUMO-Avitag-(GS)2-PHD1 before cleavage by SenP1; also called biotinylated Avitag-PHD1; Avitag-(GS)2-PHD1; source: E. coli BL21(DE3), co-expressed with BirA, purified (Ni-NTA, MonoQ flow-through); not shown: 6xHis, N-terminal, cleaved; SUMO (Smt3), N-terminal, cleaved; Avitag-(GS)2, N-terminal, kept
T3 sequence (looked up): T1 sequence (looked up)

binding result [1]: binds
B3: H3K4me1 (1–18) peptide (peptide, UniProt P68431 2-19, looked up)
peptide: ARTK(Me)QTARKSTGGKAPRK
notes: histone H3 N-terminal tail, residues 1-18; source: synthetic peptide (GenScript)

binding result [1]: binds
B4: H3K4me2 (1–18) peptide (peptide, UniProt P68431 2-19, looked up)
peptide: ARTK(Me2)QTARKSTGGKAPRK
notes: as for B3

binding result (Avitag-PHD1): binds
B5: KDM5C (295–314) peptide (peptide)
peptide: Ac-KEELSHSPEPCTKMTMRLRR-NH2
notes: KDM5C, human, ARID-PHD1 linker, residues 295-314; source: synthetic peptide (GenScript)

The remaining lines, values behind:

Binder: Ac-QSVQPSKFNSYGRRAKRLQP-NH2 (source: synthetic peptide (GenScript)) [KDM5C (199–218) peptide]
fold lower affinity than the H3 tail [1]: ~3 fold

B1: H3 (1–18) tail peptide (peptide, UniProt P68431 2-19, looked up)
peptide: ARTKQTARKSTGGKAPRK
notes: histone H3 N-terminal tail, residues 1-18; also called H3 (1–18) peptide; H3K4me0 (1–18); source: synthetic peptide (GenScript)
Kd [1]: 130 µM
fold decrease in affinity against wild-type PHD1 (PHD1 D343A mutant): ≥ 10 fold

B2: H3K4me3 (1–18) peptide (peptide, UniProt P68431 2-19, looked up)
peptide: ARTK(Me3)QTARKSTGGKAPRK
notes: as for B3
binding result [1]: binds
